Reference: publication PMC8266045, “MT1-MMP-dependent ECM processing regulates laminB1 stability and mediates replication fork restart” (PLoS ONE, 2021)

B1: Focal Adhesion Kinase (natural protein, human (endogenous in MDA-MB-231), UniProt Q05397 1-1052, looked up)
chain: MAAAYLDPNLNHTPNSSTKTHLGTGMERSPGAMERVLKVFHYFESNSEPTTWASIIRHGDATDVRGIIQKIVDSHKVKHVACYGFRLSHLRSEEVHWLHVDMGVSSVREKYELAHPPEEWKYELRIRYLPKGFLNQFTEDKPTLNFFYQQVKSDYMLEIADQVDQEIALKLGCLEIRRSYWEMRGNALEKKSNYEVLEKDVGLKRFFPKSLLDSVKAKTLRKLIQQTFRQFANLNREESILKFFEILSPVYRFDKECFKCALGSSWIISVELAIGPEEGISYLTDKGCNPTHLADFTQVQTIQYSNSEDKDRKGMLQLKIAGAPEPLTVTAPSLTIAENMADLIDGYCRLVNGTSQSFIIRPQKEGERALPSIPKLANSEKQGMRTHAVSVSETDDYAEIIDEEDTYTMPSTRDYEIQRERIELGRCIGEGQFGDVHQGIYMSPENPALAVAIKTCKNCTSDSVREKFLQEALTMRQFDHPHIVKLIGVITENPVWIIMELCTLGELRSFLQVRKYSLDLASLILYAYQLSTALAYLESKRFVHRDIAARNVLVSSNDCVKLGDFGLSRYMEDSTYYKASKGKLPIKWMAPESINFRRFTSASDVWMFGVCMWEILMHGVKPFQGVKNNDVIGRIENGERLPMPPNCPPTLYSLMTKCWAYDPSRRPRFTELKAQLSTILEEEKAQQEERMRMESRRQATVSWDSGGSDEAPPKPSRPGYPSPRSSEGFYPSPQHMVQTNHYQVSGYPGSHGITAMAGSIYPGQASLLDQTDSWNHRPQEIAMWQPNVEDSTVLDLRGIGQVLPTHLMEERLIRQQQEMEEDQRWLEKEERFLKPDVRLSRGSIDREDGSLQGPIGNQHIYQPVGKPDPAAPPKKPPRPGAPGHLGSLASLSSPADSYNEGVKLQPQEISPPPTANLDRSNDKVYENVTGLVKAVIEMSSKIQPAPPEEYVPMVKEVGLALRTLLATVDETIPLLPASTHREIEMAQKLLNSDLGELINKMKLAQQYVMTSLQQEYKKQMLTAAHALAVDAKNLLDVIDQARLKMLGQTRPH
notes: Focal adhesion kinase (FAK), endogenous in human MDA-MB-231 breast cancer cells; Endogenous protein; also called FAK; source: endogenous, MDA-MB-231 lysate (RIPA buffer)
B2: laminB1 (natural protein, human (endogenous in MDA-MB-231), UniProt P20700 1-586, looked up)
chain: MATATPVPPRMGSRAGGPTTPLSPTRLSRLQEKEELRELNDRLAVYIDKVRSLETENSALQLQVTEREEVRGRELTGLKALYETELADARRALDDTARERAKLQIELGKCKAEHDQLLLNYAKKESDLNGAQIKLREYEAALNSKDAALATALGDKKSLEGDLEDLKDQIAQLEASLAAAKKQLADETLLKVDLENRCQSLTEDLEFRKSMYEEEINETRRKHETRLVEVDSGRQIEYEYKLAQALHEMREQHDAQVRLYKEELEQTYHAKLENARLSSEMNTSTVNSAREELMESRMRIESLSSQLSNLQKESRACLERIQELEDLLAKEKDNSRRMLTDKEREMAEIRDQMQQQLNDYEQLLDVKLALDMEISAYRKLLEGEEERLKLSPSPSSRVTVSRASSSRSVRTTRGKRKRVDVEESEASSSVSISHSASATGNVCIEEIDVDGKFIRLKNTSEQDQPMGGWEMIRKIGDTSVSYKYTSRYVLKAGQTVTIWAANAGVTASPPTDLIWKNQNSWGTGEDVKVILKNSQGEEVAQRSTVFKTTIPEEEEEEEEAAGVVVEEELFHQQGTPRASNRSCAIM
notes: Lamin B1, nuclear envelope intermediate filament protein, endogenous in human MDA-MB-231 breast cancer cells; The introduction says that laminB1 is tethered to the membrane via a farnesyl group; nothing is said of the modification state in the co-IP; also called LMNB1; source: endogenous, MDA-MB-231 lysate (RIPA buffer)

Legend:
laminB1 = target: B2; test: co-IP; MDA-MB-231 lysate in RIPA buffer (50mM Tris HCl pH 8, 150 mM NaCl, 1% NP-40, 0.5% sodium deoxycholate); immunoprecipitated overnight at 4°C with laminB1 antibody; immunoblot with anti FAK and anti laminB1; IgG as negative control; conditions: partners not purified
Focal Adhesion Kinase = target: B1; test: co-IP; MDA-MB-231 lysate in RIPA buffer (50mM Tris HCl pH 8, 150 mM NaCl, 1% NP-40, 0.5% sodium deoxycholate); immunoprecipitated overnight at 4°C with FAK antibody; immunoblot with anti FAK and anti laminB1; IgG as negative control; conditions: partners not purified

Binder	enrichment versus input (laminB1) [fold versus input]	enrichment versus input (Focal Adhesion Kinase) [fold versus input]
B1	6.4 ± 1.05	–
B2	–	5.5 ± 0.4
